{"source": "patent CN117412992A", "about": "(NOVIMMUNE SA, dated 2024)", "key": {"[1]": {"molecular_target": "T1, human PD-L1 on cells (hPD-L1-transfected CHO cells; IFNg-induced HT-1080 tumour cells) (human, UniProt Q9NZQ7 19-290)", "T1 construct": "whole, on cells", "test": "cell-based competition: inhibition of human PD-1-moFc binding to IFNg-induced PD-L1+ CD47+ HT-1080 cells, CellInsight CX5"}, "[2]": {"molecular_target": "T2, recombinant human PD-L1 soluble protein, biotinylated (ACROBiosystems) (human, UniProt Q9NZQ7 19-238, biotinylated)", "T2 construct": "Bought soluble protein; also called 重组人PD-L1; 人PD-L1", "test": "BLI (Table 7) and ELISA (Fig. 1A) on recombinant PD-L1"}, "[3]": {"molecular_target": "T3, human CD47 on cells (Raji, Nalm-6, HT-1080 tumour cells; human red blood cells) (human, UniProt Q08722 19-323)", "T3 construct": "whole, on cells", "test": "flow cytometry on human red blood cells (CD47+, PD-L1-)"}, "[4]": {"molecular_target": "T1, human PD-L1 on cells …", "test": "flow cytometry on IFNg-preactivated PD-L1+ CD47+ HT-1080 cells, co-engagement of both targets"}}}
{"binder": "S79 anti-PD-L1 mAb (antibody, human IgG1, lambda, V domains shown, also called S79_Sc3_1G7_VLCL2 aPDL1 IGLV2-23; S79抗PD-L1 mAb) VH: not shown VL: QSALTQPASVSGSPGQSITISCTGTSSDVFRPPLVSWYQQHPGKAPKLMIYFASLRPSGVSNRFSGSKSGNTASLTISGLQAEDEADYYCSSWDHTGDGHVFGGGTKLTVLG", "values": [{"measurement": "IC50", "setting": "[1]", "result": 2.52, "unit": "pM"}]}
{"binder": "K2xS23 CD47xPD-L1 bispecific antibody (bispecific antibody, human IgG1, kappa, lambda, kappa-lambda body with a common heavy chain; also called K2xS23 bsAb) heavy: not shown light 1: not shown light 2: QSALTQPASVSGSPGQSITISCTGTSSDVAKIPLVSWYQQHPGKAPKLMIYFASLRPSGVSNRFSGSKSGNTASLTISGLQAEDEADYYCSSWDNAGDGHVFGGGTKLTVLGQPKAAPSVTLFPPSSEELQANKATLVCLISDFYPGAVTVAWKADSSPVKAGVETTTPSKQSNNKYAASSYLSLTPEQWKSHRSYSCQVTHEGSTVEKTVAPTECS", "values": [{"measurement": "binding result", "setting": "[2]", "result": "binds"}, {"measurement": "binding result", "setting": "[3]", "result": "binds"}, {"measurement": "binding result", "setting": "[4]", "result": "binds"}]}
{"binder": "S100 anti-PD-L1 mAb (antibody, human IgG1, lambda, V domains shown, bivalent monospecific anti-PD-L1 IgG; also called S100抗PD-L1 mAb) VH: not shown VL: QSVLTQPPSASGTPGQRVTISCSGSSSNIENKPVNWYQQLPGTAPKLLIYHDTTRPSGVPDRFSGSKSGTSASLAISGLQSEDEADYYCAAWDFATWPATEVFGGGTKLTVLG", "values": [{"measurement": "IC50", "setting": "[1]", "result": 0.84, "unit": "pM"}]}
